Test results as given in PMC3384344 (Nucleic Acids Research, 2012).
Where two headings read alike, the source gives them in different places.

Experiments:
[1] = target: DNA polymerase III α subunit, wild-type full-length (E. coli) (UniProt P10443); experiment: other fluorescence titration
[2] = target: T1, DNA polymerase III α subunit, wild-type full-length (E. coli, UniProt P10443 1-1160); experiment: other fluorescence titration
[3] = target: T2, DNA polymerase III α subunit truncation α1–280 (E. coli, UniProt P10443 1-280); experiment: other fluorescence titration
T2 sequence (P10443 1-280): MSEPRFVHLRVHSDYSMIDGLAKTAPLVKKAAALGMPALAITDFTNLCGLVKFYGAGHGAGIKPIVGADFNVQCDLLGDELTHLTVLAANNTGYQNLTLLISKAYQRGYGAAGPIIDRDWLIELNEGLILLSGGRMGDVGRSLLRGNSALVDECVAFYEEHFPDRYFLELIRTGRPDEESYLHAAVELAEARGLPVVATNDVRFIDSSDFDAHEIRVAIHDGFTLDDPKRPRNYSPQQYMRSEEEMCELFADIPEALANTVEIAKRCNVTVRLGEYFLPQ

[4] = target: DNA polymerase III α subunit truncation α917–1160 (E. coli, UniProt P10443 917-1160); experiment: other fluorescence titration
DNA polymerase III α subunit truncation α917–1160, sequence (P10443 917-1160): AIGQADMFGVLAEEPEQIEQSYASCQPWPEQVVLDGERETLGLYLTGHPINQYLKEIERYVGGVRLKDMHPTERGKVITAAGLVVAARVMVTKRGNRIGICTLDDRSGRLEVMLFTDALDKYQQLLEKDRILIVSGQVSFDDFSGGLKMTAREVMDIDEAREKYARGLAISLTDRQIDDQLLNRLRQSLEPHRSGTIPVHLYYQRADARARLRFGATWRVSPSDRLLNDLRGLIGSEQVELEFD

[5] = target: T2, DNA polymerase III α subunit truncation …; experiment: cell-based or functional assay
[6] = target: T1, DNA polymerase III α subunit, wild-type …; experiment: other fluorescence titration; remark: listed apart in the source
[7] = target: DNA polymerase III α subunit truncation α1–956 (E. coli, UniProt P10443 1-956); experiment: other fluorescence titration
DNA polymerase III α subunit truncation α1–956, sequence (P10443 1-956): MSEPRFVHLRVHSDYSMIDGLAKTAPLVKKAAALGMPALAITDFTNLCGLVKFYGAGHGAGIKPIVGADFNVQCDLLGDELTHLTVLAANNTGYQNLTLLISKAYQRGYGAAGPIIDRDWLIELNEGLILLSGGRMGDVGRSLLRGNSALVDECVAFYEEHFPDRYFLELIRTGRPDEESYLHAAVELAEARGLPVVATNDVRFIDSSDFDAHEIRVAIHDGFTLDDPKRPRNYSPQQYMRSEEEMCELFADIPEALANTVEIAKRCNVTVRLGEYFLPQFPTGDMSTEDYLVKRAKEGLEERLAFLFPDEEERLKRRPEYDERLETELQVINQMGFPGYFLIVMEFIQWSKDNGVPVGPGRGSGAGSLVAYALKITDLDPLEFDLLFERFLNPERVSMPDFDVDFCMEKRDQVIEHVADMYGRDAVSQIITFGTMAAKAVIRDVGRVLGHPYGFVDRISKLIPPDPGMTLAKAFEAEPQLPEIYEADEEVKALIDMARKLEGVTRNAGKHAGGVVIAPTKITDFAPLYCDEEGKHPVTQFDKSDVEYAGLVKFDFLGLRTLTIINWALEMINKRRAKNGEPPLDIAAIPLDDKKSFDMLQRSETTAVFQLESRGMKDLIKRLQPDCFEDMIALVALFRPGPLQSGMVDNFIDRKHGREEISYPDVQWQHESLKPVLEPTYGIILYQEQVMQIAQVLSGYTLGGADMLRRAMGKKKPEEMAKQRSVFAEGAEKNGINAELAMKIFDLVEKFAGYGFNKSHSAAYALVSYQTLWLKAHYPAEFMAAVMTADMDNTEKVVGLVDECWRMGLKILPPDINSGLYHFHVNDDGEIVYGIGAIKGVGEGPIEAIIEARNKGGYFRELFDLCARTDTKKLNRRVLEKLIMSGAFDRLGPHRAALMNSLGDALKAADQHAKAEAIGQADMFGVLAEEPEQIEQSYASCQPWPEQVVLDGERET

[8] = target: DNA polymerase III α subunit truncation α1–975 (E. coli, UniProt P10443 1-975); experiment: other fluorescence titration
DNA polymerase III α subunit truncation α1–975, sequence (P10443 1-975): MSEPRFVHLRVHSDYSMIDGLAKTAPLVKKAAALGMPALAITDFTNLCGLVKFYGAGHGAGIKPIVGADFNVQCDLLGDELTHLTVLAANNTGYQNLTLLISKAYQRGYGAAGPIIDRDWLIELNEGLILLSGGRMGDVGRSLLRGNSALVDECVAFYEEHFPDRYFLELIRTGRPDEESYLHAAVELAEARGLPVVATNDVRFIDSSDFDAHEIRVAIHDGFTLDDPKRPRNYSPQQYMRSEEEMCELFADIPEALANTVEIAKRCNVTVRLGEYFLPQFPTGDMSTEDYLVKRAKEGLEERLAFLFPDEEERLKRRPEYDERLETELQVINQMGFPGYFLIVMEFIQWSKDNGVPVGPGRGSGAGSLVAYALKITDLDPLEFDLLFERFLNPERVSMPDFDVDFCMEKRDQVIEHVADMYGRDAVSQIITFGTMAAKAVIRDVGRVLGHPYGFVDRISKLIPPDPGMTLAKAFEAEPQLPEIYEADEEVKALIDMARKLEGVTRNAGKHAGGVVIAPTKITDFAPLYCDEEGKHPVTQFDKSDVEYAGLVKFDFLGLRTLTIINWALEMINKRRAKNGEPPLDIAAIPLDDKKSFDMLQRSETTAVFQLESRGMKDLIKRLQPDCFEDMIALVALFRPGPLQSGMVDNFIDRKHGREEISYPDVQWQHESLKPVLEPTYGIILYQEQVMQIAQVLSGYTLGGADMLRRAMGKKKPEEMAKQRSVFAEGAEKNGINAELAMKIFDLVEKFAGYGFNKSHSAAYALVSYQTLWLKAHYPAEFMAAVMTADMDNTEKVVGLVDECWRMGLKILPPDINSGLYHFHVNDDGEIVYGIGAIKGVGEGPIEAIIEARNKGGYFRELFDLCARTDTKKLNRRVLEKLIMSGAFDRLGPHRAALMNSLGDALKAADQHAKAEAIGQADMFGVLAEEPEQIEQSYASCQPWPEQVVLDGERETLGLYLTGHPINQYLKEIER

cross-linking = target: the molecule itself; experiment: cross-linking

T1 sequence (P10443 whole entry, the tested form may be a part): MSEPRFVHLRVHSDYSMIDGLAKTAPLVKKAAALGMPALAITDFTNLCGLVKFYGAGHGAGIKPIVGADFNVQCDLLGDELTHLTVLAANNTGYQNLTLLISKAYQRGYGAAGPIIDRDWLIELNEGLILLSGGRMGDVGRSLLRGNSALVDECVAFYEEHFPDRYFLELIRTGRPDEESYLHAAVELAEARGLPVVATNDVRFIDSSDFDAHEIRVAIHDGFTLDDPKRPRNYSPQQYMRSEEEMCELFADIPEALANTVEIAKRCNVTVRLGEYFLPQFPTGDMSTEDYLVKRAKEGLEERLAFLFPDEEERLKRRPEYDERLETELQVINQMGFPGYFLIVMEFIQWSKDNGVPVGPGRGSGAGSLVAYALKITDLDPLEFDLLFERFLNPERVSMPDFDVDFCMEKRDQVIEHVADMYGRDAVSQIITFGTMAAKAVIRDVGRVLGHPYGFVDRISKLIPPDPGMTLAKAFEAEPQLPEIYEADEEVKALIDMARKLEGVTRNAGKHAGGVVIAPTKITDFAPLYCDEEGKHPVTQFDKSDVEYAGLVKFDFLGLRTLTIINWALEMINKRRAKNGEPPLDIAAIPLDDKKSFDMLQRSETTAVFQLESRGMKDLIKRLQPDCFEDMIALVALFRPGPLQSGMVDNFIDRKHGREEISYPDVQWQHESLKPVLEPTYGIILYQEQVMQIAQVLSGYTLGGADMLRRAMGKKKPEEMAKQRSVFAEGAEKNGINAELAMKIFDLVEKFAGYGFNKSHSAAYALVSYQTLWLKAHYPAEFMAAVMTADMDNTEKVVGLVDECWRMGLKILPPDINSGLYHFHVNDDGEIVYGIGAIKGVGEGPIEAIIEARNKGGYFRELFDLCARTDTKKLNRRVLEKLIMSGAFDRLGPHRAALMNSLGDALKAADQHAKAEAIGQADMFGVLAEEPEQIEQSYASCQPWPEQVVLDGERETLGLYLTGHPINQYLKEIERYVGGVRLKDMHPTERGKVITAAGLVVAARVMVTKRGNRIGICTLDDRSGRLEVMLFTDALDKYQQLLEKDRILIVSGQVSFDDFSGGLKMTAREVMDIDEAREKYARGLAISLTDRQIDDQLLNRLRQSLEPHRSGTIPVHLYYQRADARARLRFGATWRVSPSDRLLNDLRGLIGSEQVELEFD
DNA polymerase III α subunit, wild-type full-length (E. coli), sequence (P10443 whole entry): as the sequence (P10443 whole entry, the tested form may be a part) above

With “1:1 mixture of UmuD-S60A and UmuD′-S60A (from UniProt P0AG11) (complex)” the Kd [1] was 4.6 µM.

B1: UmuD′, cleaved form of UmuD (homodimer UmuD′2) (natural protein)
chain: GFPSPAADYVEQRIDLNQLLIQHPSATYFVKASGDSMIDGGISDGDLLIVDSAITASHGDIVIAAVDGEFTVKKLQLRPTVQLIPMNSAYSPITISSEDTLDVFGVVIHVVKAMR
For B1, the Kd [2] was 10.9 ± 1.6 µM, the Kd [3] was 8.6 ± 1 µM and the Kd [4] was 3.8 ± 0.9 µM.

B2: UmuD, wild-type full-length (homodimer UmuD2) (natural protein)
chain: MLFIKPADLREIVTFPLFSDLVQCGFPSPAADYVEQRIDLNQLLIQHPSATYFVKASGDSMIDGGISDGDLLIVDSAITASHGDIVIAAVDGEFTVKKLQLRPTVQLIPMNSAYSPITISSEDTLDVFGVVIHVVKAMR
In the case of B2, the “RecA/ssDNA-facilitated UmuD cleavage at 30°C with 0–40 µM α1–280” value [5] is reported as ~4 fold more α1–280 than wild-type α, the Kd [2] is reported as 1.1 ± 0.6 µM and the Kd [3] is reported as 7.3 ± 1.4 µM. The Kd [4] was 13.9 ± 5.1 µM, the Kd [6] was 21.7 ± 11.7 µM and the Kd [7] was 14.7 ± 1.9 µM. For the same molecule, the Kd [8] was 3.1 ± 1 µM.

B3: UmuD-S60A, non-cleavable full-length UmuD variant (natural protein)
chain: MLFIKPADLREIVTFPLFSDLVQCGFPSPAADYVEQRIDLNQLLIQHPSATYFVKASGDAMIDGGISDGDLLIVDSAITASHGDIVIAAVDGEFTVKKLQLRPTVQLIPMNSAYSPITISSEDTLDVFGVVIHVVKAMR
B3 was tested, and the binding result (cross-linking) was “binds”, the Kd [2] was 10.6 ± 2.9 µM and the Kd [3] was 10.3 ± 4.3 µM. It also gave a Kd [4] of 0.7 ± 0.3 µM.

B4: UmuD3A (UmuD containing the triple mutation T14A, L17A and F18A) (natural protein)
chain: MLFIKPADLREIVAFPAASDLVQCGFPSPAADYVEQRIDLNQLLIQHPSATYFVKASGDSMIDGGISDGDLLIVDSAITASHGDIVIAAVDGEFTVKKLQLRPTVQLIPMNSAYSPITISSEDTLDVFGVVIHVVKAMR
B4 was tested, and the Kd [2] was 8.7 ± 1.5 µM, the Kd [3] was 9.3 ± 3.2 µM and the Kd [4] was 3.4 ± 1 µM.
